According to patent US20240309109A1:
pKd: −log10 of the molar value.

Biological target: human CD38 on cells (human) (UniProt P28907)
Assay: FACS Scatchard, IgG1 on Raji cells

Chimeric OKT10 (antibody) was tested, and the pKd was 8.08.
